We go through four molecules from patent US20030103986A1 (ZymoGenetics, published 2003).

For test [1], the target named is T1, ZTNF4 (Homo sapiens (Human), UniProt Q9Y275 134-285, limits assumed, radioiodinated with 125I (Iodobeads) in the binding assays; unlabeled ZTNF4 used to determine nonspecific binding).
T1 construct: also called BAFF
Briefly: competitive binding: TACI-Fc against plate-coated TACI-N for 125I-ZTNF4. How it is done:
(§1) An N-terminal fragment of the TACI receptor, designated as “TACI-N,” was added to 96-well plates (100 μl at 0.1 μg/ml), and incubated overnight at 4° C. The plates were washed, blocked with Superblock (Pierce), and washed again. […] After incubation, the plates were washed and counted. Each determination was performed in triplicate.

For test [2], the target named is T1, ZTNF4. The test is described as follows: solution binding: 0.05 nM TACI-Fc with 0.4 pM to 1.5 nM 125I-ZTNF4, Pansorbin precipitation. How it is done:
At a concentration of 0.05 nM, each TACI-Fc construct was incubated with 0.4 pM to 1.5 nM ¹²⁵I-ZTNF4 for 30 minutes at room temperature in a total volume of 0.25 ml/tube. A Pansorbin (Staph A) suspension was added to each tube, and after 15 minutes, the samples were centrifuged, washed twice, and the pellets counted. Nonspecific binding was determined by the addition of 130 nM unlabeled ZTNF4 to the ¹²⁵I-ZTNF4/TACI-Fc mix. Specific binding was calculated by subtracting the cpm bound in the presence of unlabeled ZTNF4 from the total cpm bound at each concentration of ¹²⁵I-ZTNF4. Each determination was performed in triplicate. Binding constants were calculated using GraphPad Prism software (MacIntosh v. 3.0).

In test [3] the target is T1, ZTNF4. The test is described as follows: competitive binding: TACI-Fc against plate-coated TACI-N for 125I-ZTNF4 (20 ng/ml); average of three experiments. How it is done: as §1

B1: TACI (d1-29, d111-154)-Fc5 (Fc fusion)
chain: AMRSCPEEQYWDPLLGTCMSCKTICNHQSQRTCAAFCRSLSCRKEQGKFYDHLLRDCISCASICGQHPKQCAYFCENKLRSEPKSSDKTHTCPPCPAPEAEGAPSVFLFPPKPKDTLMISRTPEVTCVVVDVSHEDPEVKFNWYVDGVEVHNAKTKPREEQYNSTYRVVSVLTVLHQDWLNGKEYKCKVSNKALPSSIEKTISKAKGQPREPQVYTLPPSRDELTKNQVSLTCLVKGFYPSDIAVEWESNGQPENNYKTTPPVLDSDGSFFLYSKLTVDKSRWQQGNVFSCSVMHEALHNHYTQKSLSLSPGK
B1: in the test with ZTNF4 [1], the “concentration giving complete inhibition” value is ~100 ng/mL. Moreover, in the test with ZTNF4 [2], the Bmax came to 0.018 nM and the equilibrium dissociation constant (Kd) was 0.115 nM. Moreover, the IC50 in the test with ZTNF4 [3] was 2.31 nM.

B2: TACI (d1-29)-Fc5 (Fc fusion)
chain: AMRSCPEEQYWDPLLGTCMSCKTICNHQSQRTCAAFCRSLSCRKEQGKFYDHLLRDCISCASICGQHPKQCAYFCENKLRSPVNLPPELRRQRSGEVENNSDNSGRYQGLEHRGSEASPALPGLKEPKSSDKTHTCPPCPAPEAEGAPSVFLFPPKPKDTLMISRTPEVTCVVVDVSHEDPEVKFNWYVDGVEVHNAKTKPREEQYNSTYRVVSVLTVLHQDWLNGKEYKCKVSNKALPSSIEKTISKAKGQPREPQVYTLPPSRDELTKNQVSLTCLVKGFYPSDIAVEWESNGQPENNYKTTPPVLDSDGSFFLYSKLTVDKSRWQQGNVFSCSVMHEALHNHYTQKSLSLSPGK
notes: Made in CHO DG44 cells
As to B2, in the test with ZTNF4 [1], the “concentration giving complete inhibition” value was ~100 ng/mL. In the test with ZTNF4 [2], the Bmax is 0.023 nM and the Kd came to 0.134 nM. The IC50 in the test with ZTNF4 [3] stood at 2.07 nM.

B3: TACI (d1-29, d107-154)-Fc5 (Fc fusion)
chain: AMRSCPEEQYWDPLLGTCMSCKTICNHQSQRTCAAFCRSLSCRKEQGKFYDHLLRDCISCASICGQHPKQCAYFCENEPKSSDKTHTCPPCPAPEAEGAPSVFLFPPKPKDTLMISRTPEVTCVVVDVSHEDPEVKFNWYVDGVEVHNAKTKPREEQYNSTYRVVSVLTVLHQDWLNGKEYKCKVSNKALPSSIEKTISKAKGQPREPQVYTLPPSRDELTKNQVSLTCLVKGFYPSDIAVEWESNGQPENNYKTTPPVLDSDGSFFLYSKLTVDKSRWQQGNVFSCSVMHEALHNHYTQKSLSLSPGK
Take B3: the “concentration giving complete inhibition” value in the test with ZTNF4 [1] was ~100 ng/mL. In the test with ZTNF4 [2], this molecule yielded a Bmax of 0.01 nM and a Kd of 0.121 nM. Besides, in the test with ZTNF4 [3], the IC50 turned out to be 4.95 nM.

B4: TACI (d1-29, d120-154)-Fc5 (Fc fusion)
chain: AMRSCPEEQYWDPLLGTCMSCKTICNHQSQRTCAAFCRSLSCRKEQGKFYDHLLRDCISCASICGQHPKQCAYFCENKLRSPVNLPPELREPKSSDKTHTCPPCPAPEAEGAPSVFLFPPKPKDTLMISRTPEVTCVVVDVSHEDPEVKFNWYVDGVEVHNAKTKPREEQYNSTYRVVSVLTVLHQDWLNGKEYKCKVSNKALPSSIEKTISKAKGQPREPQVYTLPPSRDELTKNQVSLTCLVKGFYPSDIAVEWESNGQPENNYKTTPPVLDSDGSFFLYSKLTVDKSRWQQGNVFSCSVMHEALHNHYTQKSLSLSPGK
Turning to B4, in the test with ZTNF4 [1], the “concentration giving complete inhibition” value was ~100 ng/mL. In the test with ZTNF4 [2], the Bmax was 0.021 nM and binding was put at a Kd of 0.092 nM. In the test with ZTNF4 [3], this molecule showed an IC50 of 2.21 nM.

The term Kd denotes the constant that tells how readily two partners part at equilibrium. A word on the IC50: it is the concentration at which inhibition is half-maximal. Low values mean higher potency, high ones lower potency.
